From patent US8329178B2, “Antibodies against CXCR4 and methods of use thereof” (Dana-Farber Cancer Institute, Inc., dated 2012)

Molecular target: CXCR2/CXCR4 chimera 4442 (human, UniProt P61073)
Assay: FACS, 293T cells expressing CXCR4 variants

Binder | binding to cells expressing the variant (+%)
33-IgG1 (antibody, V domains shown) VH: QVTLKESGGGVVQPGRSLRLSCAASGFTFTNYGLHWVRQAPGKGLEWVAVISHDGTKKYYADSVKGRFTISRDSSENTLYLQMNSLRPEDSALYYCARDGGYCSGGRCYSYGMDVWGQGTTVTVSS VL: QSVLTQPPSASGTPGQRVTISCSGSRSNIGSNTVNWYQQLPGTAPKLLIYTNNQRPSGVPDRFSGSKSGTSASLAITGLQAEDEADYYCLSFDSSLTSYVFGTGTKVTVLG | 99.5%
48-IgG1 (antibody, V domains shown) VH: QVQLVQSGGGVVLPGRSLRLSCVASGFTFRRYGMHWVRQAPGKGLEWVSLISYDGSKTFYGESVKGRFTISRDNSKNTLYLQMNSLRAEDTAVYYCARATVTTDGYYYMDVWGKGTTVTVSS VL: not shown | 91.9%
